Molecular target: IgM CM-22
Test: SPR (Biacore CM5), N2 10.5-120μM injected over amine-coupled IgM CM-22, steady-state fit to 1:1 Langmuir isotherm

Sequence of IgM CM-22 (chain, as listed by the source, chain 1 of 2): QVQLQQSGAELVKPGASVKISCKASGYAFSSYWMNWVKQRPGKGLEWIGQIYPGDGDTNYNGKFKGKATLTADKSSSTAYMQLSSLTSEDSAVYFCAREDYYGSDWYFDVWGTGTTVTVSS
Sequence of IgM CM-22 (chain, as listed by the source, chain 2 of 2): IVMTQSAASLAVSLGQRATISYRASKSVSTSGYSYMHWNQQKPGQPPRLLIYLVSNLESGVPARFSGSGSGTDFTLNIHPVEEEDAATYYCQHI

B1: self peptide N2 (peptide)
peptide: LMKNMDPLNDNV
notes: also called 自身肽N2; N2肽
Kd: 123 µM

Source: CN1977043A (CBR INST FOR BIOMED RES INC, dated 2007)
